How the values were obtained:
Test in all cases: ELISA as in Example 2, receptor coated on the plate
[1] = molecular target: T1, Soluble DR4 protein (R&D Systems Catalog #347-DR-100/CF) (human, UniProt O00220 24-239, limits assumed)
T1 construct: Coated on the ELISA plate at 2 ug/mL; also called TRAILR1; Apo2
T1 sequence (looked up): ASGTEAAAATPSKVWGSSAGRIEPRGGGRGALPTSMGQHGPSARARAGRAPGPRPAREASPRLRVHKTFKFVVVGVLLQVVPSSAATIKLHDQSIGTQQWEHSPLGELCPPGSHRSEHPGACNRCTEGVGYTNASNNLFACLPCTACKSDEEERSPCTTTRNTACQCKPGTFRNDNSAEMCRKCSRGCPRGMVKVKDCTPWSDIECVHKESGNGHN
Description: (§1) DR4 or decoy receptors DcR1 and DcR2. Soluble DRS, DR4, DcR1, or DcR2 protein (R&D Systems Catalog #631-T2-100/CF, 347-DR-100/CF, 630-TR-100/CF, 633-TR-100 respectively) were coated on an ELISA plate at 2 μg/mL in 100 mM NaHCO₃ pH 9.5 overnight at 4° C. A solution of 2% BSA in PBS was used for the blocking and antibody incubation steps. The plate was blocked for 1 hour at room temperature, then incubated with mouse anti-human DRS mAb (Acris Antibodies Catalog #AM31206AF-N) for 1 hour at room temperature. anti-DRS mAb was 3-fold serially diluted to concentrations ranging from 1 to 200 ng/mL. After washing 3 times with PBS plus 0.05% Tween-20, the plate was incubated with rat anti-mouse kappa-HRP (Southern Biotech Catalog #1180-05) for 1 hour at room temperature, protected from light. After washing 3 times with PBS plus 0.05% Tween-20, the plate was incubated with TMB substrate (BD Biosciences Catalog #555214) for 20 minutes at room temperature. The reaction was stopped with 1M H₂SO₄ and absorbance at 450nm was determined using a microtiter plate reader.
(§2) Biotech Catalog #9180-05) or 1:6000 Mouse Anti-Human Kappa-HRP (Southern Biotech Catalog #9230-05) was used for detection.

[2] = molecular target: T2, Soluble DcR2 protein (R&D Systems Catalog #633-TR-100) (UniProt Q9UBN6 56-211, limits assumed)
T2 construct: Coated on the ELISA plate at 2 ug/mL; also called TRAILR4; decoy receptor DcR2
T2 sequence (looked up): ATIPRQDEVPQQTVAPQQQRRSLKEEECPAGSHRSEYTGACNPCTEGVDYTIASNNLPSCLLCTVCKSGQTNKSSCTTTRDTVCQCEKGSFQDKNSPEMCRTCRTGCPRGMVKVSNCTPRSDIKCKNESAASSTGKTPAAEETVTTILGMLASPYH
Description: as §1, §2

[3] = molecular target: T3, Soluble DcR1 protein (R&D Systems Catalog #630-TR-100/CF) (UniProt O14798 26-221, limits assumed)
T3 construct: Coated on the ELISA plate at 2 ug/mL; also called TRAILR3; decoy receptor DcR1
T3 sequence (looked up): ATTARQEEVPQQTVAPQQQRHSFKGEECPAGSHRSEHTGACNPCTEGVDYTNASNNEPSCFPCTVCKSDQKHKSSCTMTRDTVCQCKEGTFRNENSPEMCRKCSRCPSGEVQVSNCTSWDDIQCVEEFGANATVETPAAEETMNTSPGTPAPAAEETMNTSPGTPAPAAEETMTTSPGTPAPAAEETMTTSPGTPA
Description: as §1, §2

Measured: binding result

B1: Anti-DR5 mAb #2, IgG version (antibody, V domains shown)
VH: QVQLQESGPGLVKPSQTLSLTCTVSGGSISSGDYFWSWIRQLPGKGLECIGHIHNSGTTYYNPSLKSRVTISVDTSKKQFSLRLSSVTAADTAVYYCARDRGGDYYYGMDVWGQGTTVTVSS
VL: EIVLTQSPGTLSLSPGERATLSCRASQGISRSYLAWYQQKPGQAPSLLIYGASSRATGIPDRFSGSGSGTDFTLTISRLEPEDFAVYYCQQFGSSPWTFGQGTKVEIK
notes: Human IgG; variable domains put into proprietary IgG vectors (Aragen Biosciences, Lake Pharma); also called DR5 MAb IgG #2; Anti-DRS mAb #2 IgG
no binding: all assays above

B2: Anti-DR5 mAb #2, pentameric IgM-J chain version (antibody, V domains shown)
VH: QVQLQESGPGLVKPSQTLSLTCTVSGGSISSGDYFWSWIRQLPGKGLECIGHIHNSGTTYYNPSLKSRVTISVDTSKKQFSLRLSSVTAADTAVYYCARDRGGDYYYGMDVWGQGTTVTVSS
VL: EIVLTQSPGTLSLSPGERATLSCRASQGISRSYLAWYQQKPGQAPSLLIYGASSRATGIPDRFSGSGSGTDFTLTISRLEPEDFAVYYCQQFGSSPWTFGQGTKVEIK
notes: Pentameric IgM with J chain; variable domains put into proprietary IgM vectors; also called DR5 MAb IgM #2; IgM Anti-DR5 mAb #2
no binding: all assays above
